Laboratory results from paper PMC3568036.

Tests used:
[1] = molecular target: Flag-tagged EspM2 (EHEC O157:H7 Sakai)
[2] = molecular target: Flag-tagged EspM2 (EHEC O157:H7 Sakai); remark: listed apart in the source

Q: How did the percent of HeLa cells with stress fibers when transfected with EspM2 and EspO1-2 W77A expression vectors (38% with the EspM2 vector only) (% of transfected cells) [1] turn out when GST-EspO1-2 W77A (natural protein) was run?
A: 20

Q: With GST-EspO1-2 W77H (natural protein) as the substance, how does the percent of HeLa cells with stress fibers when transfected with EspM2 and EspO1-2 W77H expression vectors (38% with the EspM2 vector only) (% of transfected cells) [1] read?
A: 20

Q: Which percent of HeLa cells with stress fibers when transfected with both EspM2 and EspO1-2 expression vectors (38% with the EspM2 vector only), 72 h post-transfection (% of transfected cells) [2] does the source give for “glutathione-S-transferase (GST)-tagged EspO1-2 (natural protein)” here?
A: 10
